{"source": "patent US20060177442A1", "about": "(Bristol-Myers Squibb, published 2006)", "binders": {"B1": {"name": "fully human anti-CD30 monoclonal antibody 5F11 (antibody, V domains shown)", "VH": "QVQLQQWGAGLLKPSETLSLTCAVYGGSFSAYYWSWIRQPPGKGLEWIGDINHGGGTNYNPSLKSRVTISVDTSKNQFSLKLNSVTAADTAVYYCASLTAYWGQGSLVTVSS", "VL": "DIQMTQSPTSLSASVGDRVTITCRASQGISSWLTWYQQKPEKAPKSLIYAASSLQSGVPSRFSGSGSGTDFTLTISSLQPEDFATYYCQQYDSYPITFGQGTRLEIK"}}, "target": "T1, CD30 on Hodgkin-derived cell lines (L540, L428) (human, UniProt P28908 19-595)", "T1 sequence (looked up)": "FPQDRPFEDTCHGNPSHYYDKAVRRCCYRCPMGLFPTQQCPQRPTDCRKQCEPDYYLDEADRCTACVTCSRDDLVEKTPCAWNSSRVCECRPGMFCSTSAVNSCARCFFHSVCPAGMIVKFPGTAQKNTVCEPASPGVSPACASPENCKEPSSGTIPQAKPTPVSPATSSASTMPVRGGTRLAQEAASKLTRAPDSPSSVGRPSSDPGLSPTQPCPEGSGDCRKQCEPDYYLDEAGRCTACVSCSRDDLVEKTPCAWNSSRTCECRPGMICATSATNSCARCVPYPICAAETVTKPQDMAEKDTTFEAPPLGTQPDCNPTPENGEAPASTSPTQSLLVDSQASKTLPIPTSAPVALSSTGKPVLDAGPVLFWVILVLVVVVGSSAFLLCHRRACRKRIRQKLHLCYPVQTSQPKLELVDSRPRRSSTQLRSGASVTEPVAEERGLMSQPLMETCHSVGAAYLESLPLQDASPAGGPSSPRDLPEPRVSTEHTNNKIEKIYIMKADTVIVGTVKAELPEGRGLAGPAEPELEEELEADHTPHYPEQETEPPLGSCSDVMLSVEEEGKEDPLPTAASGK", "experiment": "cell-based or functional assay", "data": [{"binder": "B1", "values": [{"measurement": "NF-κB-responsive luciferase reporter gene in transfected L428 cells", "value": "~2", "unit": "fold"}]}]}
